B1: TPR t1 (parent)
chain: GACCAAUCUGCCCUCAGAGCUCGAGAACAUCUUCGGAUGCAGAGGAGGCAGGCUUCGGUGGCGCGAUAGCGCCAACGUCCUCAACCUCCAAUGCAUCCCACCACAUGAUGAUGCCUGAAGAGCCUUGGUUUUUUG

The series covers variants of B1. In words: polymerase ribozyme fitness, log enrichment relative to wild type (log ratio); higher = more active; in vitro selection for triplet polymerase activity. The essentials:
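Each subunit of a heterodimeric triplet polymerase ribozyme was mutagenized into a library by PCR, transcribed, and subjected to one round of in vitro selection, run in triplicate. Libraries were annealed with a biotinylated primer, the partner subunit and triplets, incubated frozen at −7 °C, and extended constructs were gel-excised, captured on streptavidin beads and recovered by RT-PCR. Input and output libraries were sequenced on Illumina, keeping genotypes with ≥10 input reads and ≥1 read per output. Fitness is log base 2 of genotype enrichment divided by wild-type enrichment, from inverse-variance-weighted replicate averages.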
With GACCAAUCUGCCAUCAGAGCUCGAGAACAUCUUCGGAUGCAGAGGAGGCAGGCUUCGGUGGGGCGAUAGCGCCAACGUCCUCAACCUCCAAUGCAUCCCACCACAUGAUGAUGCCUGAAGAGCCUUGGUUUUUUG, the “polymerase ribozyme fitness (log ratio)” value is -2.67.

Consider GACCAAUCUGCCAUCAGAGCUCGAGAAGAUCUUCGGAUGCAGAGGAGGAAGGCUUCGGUGGCGCGAUAGCGCCAUCGUCCUCAACCUCCAAUGCAUCCCACCGCAUUAUGACGCCUGAAGAGCCUUGGUUUUUUG, for which the “polymerase ribozyme fitness (log ratio)” value was -6.59.

On to GACCAAUCUGCCAUCAGAGCUCGAGAACGUCUUCGGAUGCAGAGGAGGCAGGUUUCGGUGGCGCGAUAGCGCCAACGUCCUCAACCUCCAAUGCAUCCCACCACACGAUGAUGCCUGAAGAGCCUUGGUUUUUUG, for which the “polymerase ribozyme fitness (log ratio)” value is -5.28.

As to GACCAAUCUGCCAUCAGAGCUCGAGAACAUCUUAGGAUGCAGAGGAGGCAGGCUUCGGUGGCGCGAUAACGCCAACGUCCUCAACCUCCAAUGCAACCCACCACAUGAUGAUGCAUGAAGAGCCUUGGUUUUUUG, the “polymerase ribozyme fitness (log ratio)” value was -7.14.

In the case of GACCAAUCUGCCAUCACAGCUCGAGAACAUCUUCGGAUGCAGAGGAGGCAGGCUUCGGUGGCGCGAUAGCGCCAACGUCCUCAACCUCCAAUGCAUCCCACCACAUGAUGAUGCCUGAAGAGCCUUGGUUUUUUG, the “polymerase ribozyme fitness (log ratio)” value was -4.33.

Turning to GACCAAUCUGCCAUCAGAGCUCGAGAACAUCUUCGGAUGCAGAGGAGGCAGGCUUGGGUGGCGCGAUAGCGCCAACGUCCUCAACCUCAUAUGCAUCCCACCACAUGAUGAUGCCUGAAGAGCCUUGGUUUUUUG, the “polymerase ribozyme fitness (log ratio)” value is -3.98.

For GACCAAUCUGCCAUCAGAGCUCGAGAACAUCUUCGGAUGCAGAGGAGGCAGGCUUCGGUGGCGCGAUAGCGCCAACGUCCUCAACCUCCAAUGCAUCCCUCCACAUGAUGAUGCCUGAAGAGCCUUGGUUUUUUG, the “polymerase ribozyme fitness (log ratio)” value is -2.85.

GACCAAUCUGCCAUCAGAGCUCGAGAACAUCUUCGGAUGAAGAGGAGGCAGGCUUUGGUGGCGCGAUAGCGCCAACGUCCUCAACCUCCAAUGCAUCCCACCACAUGAUGAUGCCUGAAGAGCCUUGGUUUUUUG: the “polymerase ribozyme fitness (log ratio)” value is -2.79.

For the variant GACCAAUCUGCCAUCAGAGCUCGAGAACAUCUUCGGAUGCAGAGGGGGCAGGCUUCGGUGGCGCGAUAGCGCCAACGUCCUCAACCUCCAAUGCAUCCCACCACAUGAUGAUGCCUGAAGAGCCGUGGUUUUUUG, the “polymerase ribozyme fitness (log ratio)” value was -3.19.

As for GACCAAUCUGCCAUCAGAGCUCGAGAACGUCUUCGGAUGCAGAGGAGGCAGGCUUCGGUGGCGCGAUAGCGCGAACGUUCUCAACCUCCAAUGCAUCCCACCACAUGAUGAUGCCUGAAGAGCCGUGGUUUUUUG, the “polymerase ribozyme fitness (log ratio)” value was -4.63.

With GACCAAUCUGCCAUCAGAGCUCGAGAACGUCAUCGGAUACAGAGGAGGCAGGCUUCGGUGGCGCGAUAGCGCCAACGUCCUCAACCUCCAAUGCAUCCCACCACAUGAUGAUGCCUGAAAAGCCUAGGUGUUUCG, the “polymerase ribozyme fitness (log ratio)” value is -2.77.

Consider GACCAAUCUGCCAUCAGAGCUCGAGAACAUCUUCGGAUGCAGAGGAGGCAGGCUUCGGUGGCGCGAUAGCGCCAACGUCCUCAACCUCCAAUGAAUCCCACCACAUGAUGAUGCCUGAAGAGCAUUGGUUUUUUG, for which the “polymerase ribozyme fitness (log ratio)” value came to 0.414.

Take GACCAAUCUGCCAUCAGAGCUCGAGAACAUCUUCGGAUGCAGAGGAGGCAGGCUUCGGUGGCGCGAUAGCGCCAACGUCCUCAACCUCCGAUGCGUCCCACCACAUGAUGAUGCCUGAAGAGCCUUGGUUUUGUG: the “polymerase ribozyme fitness (log ratio)” value is -1.7.

Turning to GACCAAUCUGCCAUCAGAGCUCGAGAACAUCUUCGGAUGCAGAGGAGGCAGGCUUCGGUGGCGCGAUAGCGCCAACGUCCUCAACCUCCAAUGCAUCCCACCACAUGAUGAUGCCUGAUGAGCCUUGGUUUUUUG, the “polymerase ribozyme fitness (log ratio)” value came to 0.145.

Regarding GACCAAUCUGCCAUCAGAACUCGAGAACAUCUUCGGAUGCAGAGGAGGCAGCCUUCGGUGGCGCGAUAGCGCCAAGGUCCUCAACCUCCAAUGCAUCCCACCACAUGAUGAUGCCUGUAGAGCAUUGGUUUUAUG, the “polymerase ribozyme fitness (log ratio)” value is -4.56.

Consider GACCAAUCUGCCAUCAGAGAUCGAGAACAUCUUCGGAUGCAGAGGAGGCAGGCUUCGGUGGCGCGAUAGCGCCAACGUCCUCAACCUCCAAUGCAUCCCACCACAUGAUGAUGCCUGAAGAGCCUUGGUUUUUUG, for which the “polymerase ribozyme fitness (log ratio)” value was -3.84.

Take GACCAAUCUGCCAUCAGAGCUCGAGAACAUCUUCGGAUGCAGAGGAGGCAGGCUUCGGUGGCGCGAUAGCGCCAACGUCCUCAACCUCCAAUGCAUCCCACCAUAUGAUGAUGCCUGCAGAGCAUUGGUUUUUUG: the “polymerase ribozyme fitness (log ratio)” value is -0.374.

GACCAAUCUGCCAUCAGAGCUCGAGAACAUCUUCGGAUGCAGAGGAGGCAGGAUUCGGUGGCGCGAUAGCGCCAACGUCCUCAACCUCCAAUGCAUCCCACCACAUGAUGAUGCUUGAUGAGCCUUGGUUUUUUG: the “polymerase ribozyme fitness (log ratio)” value came out at 0.949.

For the variant GACCAAUCUGCCAUCAGAGCUCGAGAACAUCUUCGGAUGCAGAGGAGGCAGGCUUCGGUGGCGCGAUAGCGCCAAGGUCCUCAACCUCCAAUGCAUCCCACCACAUGAUGAUGCCUGAAGAGCCUUGGUUUUUUG, the “polymerase ribozyme fitness (log ratio)” value is -2.51.

Regarding GACCAAUCUGCCAUCAGAGCUCGAGAACAUCUUCGGAUGCAGAGGAGGCAGGCUUCGGUGGCGCGAUAGAGCCAACGUCCUCAACCUCCAAUGCAUCCCACCACAUGAUGAUGCCUGAAGAGCCUUGGUUUUUUG, the “polymerase ribozyme fitness (log ratio)” value is -3.18.

In the case of GACCAAUCUGCCAUCAGAGCUCGAGAACAUCUUCGGAUGCAGAGGAGGCAGGCUUCGGUGGAGCGAUAGCGCCAACGUCCUCAACCUCCAAUGCAUCCCACCACAUGAUGAUGCCUGAAUAGCCUUGGUUUUUUG, the “polymerase ribozyme fitness (log ratio)” value is -1.17.
